“And” between values parts separate entries of the source, which are not always exact repeats. Equal values may be shown once.
How the values were obtained:
[1] = biological target: T1, mouse ligand (single-chain IL27: EBI3 linked to IL-27 p28) (Mus musculus, UniProt O35228+Q8K3I6); assay: Surface plasmon resonance (BIACORE 3000) kinetic rate and affinity constants; assay type: binding; details: SPR
T1 construct: purchased R&D Systems
T1 sequence (O35228+Q8K3I6 with tags, fused parts or gaps): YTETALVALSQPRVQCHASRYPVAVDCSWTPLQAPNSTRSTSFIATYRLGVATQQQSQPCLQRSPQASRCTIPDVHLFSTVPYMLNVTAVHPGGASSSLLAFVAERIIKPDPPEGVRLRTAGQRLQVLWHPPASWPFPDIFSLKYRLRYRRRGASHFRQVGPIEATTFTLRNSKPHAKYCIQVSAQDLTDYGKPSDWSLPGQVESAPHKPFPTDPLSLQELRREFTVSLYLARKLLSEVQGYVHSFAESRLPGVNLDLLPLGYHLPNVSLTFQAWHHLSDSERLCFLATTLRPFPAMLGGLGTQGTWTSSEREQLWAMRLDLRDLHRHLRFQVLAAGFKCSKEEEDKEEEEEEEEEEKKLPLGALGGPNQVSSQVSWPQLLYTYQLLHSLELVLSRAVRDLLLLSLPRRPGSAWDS
Description: Kinetic rate and affinity constant values for the mouse (IL27RAm(mFc1), Example 1) and human (IL27RA-Fc5, Example 2) soluble receptors were obtained by surface plasmon resonance (SPR) using an automated instrument (BIACORE 3000; Biacore International AB, Uppsala, Sweden). The mouse soluble receptor was tested against mouse ligand (lot A1418F), and the human soluble receptor was tested against both mouse (A1426F) and human (A1534F) ligands. For determination of the kinetic rate constants for the receptor-ligand interactions, the gp130 molecule was not included as part of the receptor complex.
The IL27 ligands used in this study were single-chain molecules comprising EBI3 connected by its C-terminus to the N-terminus of IL-27 p28 via a polypeptide linker. (R&D Systems) Each of the ligands included an amino-terminal peptide tag.
For the mouse IL27RA study, the soluble receptor was captured onto the chip surface by an isotype-specific anti-mouse Fc antibody (obtained from Jackson ImmunoResearch Laboratories, Inc., West Grove, Pa.) covalently immobilized to the chip (BIACORE CM5 chip) using the standard amine coupling protocol specified by the instrument manufacturer. For the human IL27RA studies, the soluble receptor was directly and covalently immobilized to the chip via the amine coupling protocol. In all studies, ligand was injected over the active (receptor-bound) surface at varying concentrations to obtain a series of binding curves.
Experimental conditions were optimized for determination of kinetic rate constant values. The molecular densities of the soluble receptor protein loaded onto the chip surface were targeted to obtain maximum IL27 binding levels (Rmax) of ≦20 RU. The analyte (ligand) was injected over the receptor surface at a flow rate of […] at a concentration range of approximately 0.05 to 10 nM, allowing for an association phase of 3 minutes and a dissociation phase of 10 minutes. […]
All data were assessed using software provided with the instrument (BIACORE Evaluation software v. 3.2). […]

[2] = Pharmacokinetics of soluble receptors in female C57B1/6 mice (serum ELISA, noncompartmental analysis); assay type: in vivo, mouse; details: for AUCINF: extrapolated to infinity
Description: Studies were performed to evaluate the pharmacokinetics of the mouse (IL-27RAm(mFc1)) and human (IL-27RA-Fc5) soluble receptors in female C57B1/6 mice.
Serum was generated from each sample and analyzed by a qualified enzyme-linked immunosorbant assay (ELISA). The resulting mean serum concentration versus time profiles were then subjected to noncompartmental pharmacokinetic analyses. The following pharmacokinetic parameters were calculated: C0 and Cmax (extrapolated concentration at time zero and maximum serum concentration, respectively), Tmax (time to achieve maximum concentration), t1/2 λz (terminal half-life), AUC0-t (area under the concentration versus time curve from time zero to the last measurable time point), AUCINF (area under the concentration versus time curve extrapolated to infinity), C1 or C1/F (clearance or clearance divided by bioavailable fraction, respectively), VSS or VZ/F (steady state volume of distribution or volume of distribution divided by the bioavailable fraction, respectively), and F (bioavailable fraction).

[3] = biological target: T2, single-chain mouse IL-27 (Mus musculus, UniProt O35228+Q8K3I6); assay: IL-27 inhibition of IL-2 production neutralized by IL-27RA Fc (third set of experiments); assay type: cell-based; details: + IL-27 (10 ng/ml)
T2 sequence (O35228+Q8K3I6 with tags, fused parts or gaps): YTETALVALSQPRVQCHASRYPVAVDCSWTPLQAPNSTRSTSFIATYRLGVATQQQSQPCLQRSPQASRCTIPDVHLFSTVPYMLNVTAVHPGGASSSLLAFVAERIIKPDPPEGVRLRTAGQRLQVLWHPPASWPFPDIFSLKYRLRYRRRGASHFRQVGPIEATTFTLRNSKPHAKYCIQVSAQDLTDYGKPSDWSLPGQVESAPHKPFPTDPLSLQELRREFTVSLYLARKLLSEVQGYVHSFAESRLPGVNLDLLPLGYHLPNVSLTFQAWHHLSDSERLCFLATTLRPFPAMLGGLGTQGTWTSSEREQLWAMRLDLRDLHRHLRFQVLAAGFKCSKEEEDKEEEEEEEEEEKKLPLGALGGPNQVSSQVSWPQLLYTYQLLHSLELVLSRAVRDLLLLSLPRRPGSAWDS
Description: Naïve mouse CD4 T-cells were isolated as described above. For testing of the neutralizing mAbs, the naïve CD4 T cells were preincubated for 30 minutes at 37 degrees C. with graded concentrations (60, 30, 15, 7.5, 3.75, 1.875.micro.g/ml) of either neutralizing rat anti-mouse IL27RA mAb (each mAb tested separately), rat IgG1 isotype control mAb, rat IgG2a isotype control mAb, or no mAb. […] The CD4 T cells (4×10^5/well) were then transferred to anti-CD3 coated tissue culture plates. Single-chain mouse IL-27 (10 ng/ml) was then added to the plates. Duplicate plates were set up for all experimental conditions. The plates were then cultured at 37 degrees for up to 72 hours.
For testing of the soluble receptor, single-chain mouse IL-27 (10 ng/ml) was preincubated for 30 minutes at 37 degrees C. with either IL27RAm(mFc1) (10.0 and 5.0.micro.g/ml), IL27RA-Fc5, mouse Fc1 protein (10.0 and 5.0.micro.g/ml), human Fc5 protein (10.0 and 5.0.micro.g/ml), or no recombinant protein in wells of the anti-CD3 coated plates. 4×10^5 CD4^+ CD62L high cells were added to the wells. Duplicate plates were set up for all experimental conditions. The plates were then cultured at 37 degrees for up to 72 hours. Cell supernatants were collected from one set of plates at 48 hours and from the duplicate set of plates at 72 hours. The supernatants were stored frozen at −80° C.

B1: IL-27RAm(mFc1): Extracellular domain of mouse IL27RA fused to a wild type BALB/c mouse gamma2a constant region Fc tag (protein)
chain: MNRLERVALARLETPRLEGLLELELESLEMSLELELEGTRPRHGSPRGPRLEQCYSVGPRLEGILENCSWGLPRLEGDLEGLTPRPRVLEYHQSQKYHPRNRVWGLVKVPRSKQSWVTIPRRGLQFTMADKLELEIWGTQKGRPRLEWSSVSVASNLEGLTQMKPRDTPRQIFSQVASPISGLGLATLEGLATVQWAPRPRVWPRPRQKALETCQFRYKGLCQAGLAWTRLEGLPRQLEKTDGLETPRVGLMQNLEGLPRGTCYQVSGRCQVGLNGYPRWGGLWSSPRLESFQTPRFLEDPRGLDVWVSGTVCGLTSGKRAALELEVWKDPRRPRCVQVTYTVWFGAGDITTTQGLGLVPRCCKSPRVPRAWMGLWAVVSPRGNSTSWVPRPRTNLESLEVCLEAPRGLSAPRCDVGVSSADGSPRGIKVTWKQGTARGSPRLEGLYVVASPWAQDGDSLEDKLENWTRLEPRPRGNLESTLELEPRGGLFKGGVPRYRITVTAVYSGGLEAAAPRSVWGFRGLGLLEVPRLEAGPRAVWRLEPRDDPRPRGTPRVVALAWGGLVPRRHQLERGQATHYTFCIQSRGLESTVCRNVSSQTQTATLEPRNLEHSGSFKLEWVTVSTVALAGQGPRPRGPRDLESLEHLEPRDNRIRWKALEPRWFLESLEWGLELELEMGCGLESLEASTRCLEQARCLEHWRHKLELEPRQWIWGLRVPRDPRANSNSGQPRYIKGLVSLEPRQPRPRKDGPRILEGLVGLGLVGLLEQPRVVGLSPRKASAPRIYSGYGLKHFLEPRTPRGLGLLEGLELEV
modifications: left off: a dimerising Fc or GST
notes: Extracellular domain of mouse IL27RA fused to a wild type BALB/c mouse gamma2a constant region Fc tag
ka ([1]; 1:1 binding model): 1e+07 M⁻¹ s⁻¹
kd ([1]; 1:1 binding model): 0.0012 s⁻¹
Kd ([1]; Kd=kd/ka): 0.12 nM
AUC0-24 ([2]; IP, 100 μg): 98.2 µg·h/mL
Cl/F ([2]; IP, 100 μg): 0.983 mL/h
Tmax ([2]; IP, 100 μg): 1 h
t1/2 λz (terminal half-life) ([2]; IP, 100 μg): 5.17 h
Cmax ([2]; IP, 100 μg, mouse serum): 13200 ng/mL
AUCINF ([2]; IP, 100 μg): 102 µg·h/mL
AUC0-24 ([2]; IV, 100 μg): 157 µg·h/mL
Cl ([2]; IV, 100 μg): 0.618 mL/h
Vss ([2]; IV, 100 μg): 3.05 mL
t1/2 λz (terminal half-life) ([2]; IV, 100 μg): 5.25 h
Co (extrapolated concentration at time zero) ([2]; IV, 100 μg, mouse serum): 36.2 µg/mL
AUCINF ([2]; IV, 100 μg): 162 µg·h/mL
AUC0-24 ([2]; SC, 100 μg): 56.5 µg·h/mL
Tmax ([2]; SC, 100 μg): 3 h
Cmax ([2]; SC, 100 μg, mouse serum): 7950 ng/mL
clearance compared to IL-27RA-Fc5 ([2]; female C57B1/6 mice): more rapid clearance
IL-2 concentration ([3]; 48 hr, protein conc. 5 (μg/ml; Fc controls in molar equiv.)): 4021.15 pg/mL
IL-2 concentration ([3]; 48 hr, protein conc. 10 (μg/ml; Fc controls in molar equiv.), listed as mIL-27RA): 5215.59 pg/mL and 4922.26 pg/mL
IL-2 concentration ([3]; 72 hr, protein conc. 5 (μg/ml; Fc controls in molar equiv.)): 5744.95 pg/mL
IL-2 concentration ([3]; 72 hr, protein conc. 10 (μg/ml; Fc controls in molar equiv.), listed as mIL-27RA): 6704.62 pg/mL and 12186.7 pg/mL
